Measurements: patent US7786083B2, “Metastin derivatives and use thereof” (Takeda Pharmaceutical Company Limited, priority 2006, dated 2010)
*1 amine or outer side, *2 acyl side, *3 side chain or, on linkers, in order; H or OH if unused. [ ]: non-standard residue; d: D form. Ser(Me) = O-methylserine, COC[C@H](N[*:1])C(=O)[*:2]; 2Nal = N[C@@H](Cc1ccc2ccccc2c1)C(=O)O; Arg(Me) = CNC(=N)NCCC[C@H](N)C(=O)O; Dap(CONH2) = NC(=O)NC[C@H](N)C(=O)O; Ala(cPr) = N[C@@H](CC1CC1)C(=O)O; Hyp = O=C(O)[C@@H]1C[C@@H](O)CN1; Aad = N[C@@H](CCCC(=O)O)C(=O)O; Cha = N[C@@H](CC1CCCCC1)C(=O)O; Cit = NC(=O)NCCC[C@H](N)C(=O)O; Nva = CCC[C@H](N)C(=O)O; Abu = CC[C@H](N)C(=O)O; Aib = CC(C)(N)C(=O)O

B1: des(1)-Ac-[D-Tyr2,Hyp3,Alb4,Thr5,Cha6,Gly7Ψ((E)CH═CH)Leu8,Trp10]MS10 (peptide)
peptide: Ac-[dY][Hyp][Dap(CONH2)]T[Cha]GLRW-NH2
modifications: also: Gly6-Leu7 -CONH- replaced by (E)-CH=CH-
B2: des(1)-Ac-[D-Tyr2,Hyp3,Thr5,Aib7,Arg(Me)9,Trp10]MS10 (peptide)
peptide: Ac-[dY][Hyp]NTF[Aib]L[Arg(Me)]W-NH2
B3: des(1)-Ac-[D-Tyr2,Hyp3,Cit4,Thr5,Cha6,Gly7Ψ((E)CH═CH)Leu8,Arg(Me)9,Trp10]MS10 (peptide)
peptide: Ac-[dY][Hyp][Cit]T[Cha]GL[Arg(Me)]W-NH2
modifications: also: Gly6-Leu7 -CONH- replaced by (E)-CH=CH-
B4: des(1)-Ac-[D-Tyr2,Glu3,Thr5,Gly7Ψ((E)CH═CH)Leu8,Arg(Me)9,Trp10]MS10 (peptide)
peptide: Ac-[dY]ENTFGL[Arg(Me)]W-NH2
modifications: also: Gly6-Leu7 -CONH- replaced by (E) type alkene
B5: des(1)-Ac-[D-Tyr2,Aad3,Thr5,Cha6,Ala(cPr)8,Arg(Me)9,Trp10]MS10 (peptide)
peptide: Ac-[dY][Aad]NT[Cha]G[Ala(cPr)][Arg(Me)]W-NH2
B6: des(1)-Ac-[D-Tyr2,Hyp3,Thr5,Cha6,Ser(Me)8,Arg(Me)9,Trp10]MS10 (peptide)
peptide: Ac-[dY][Hyp]NT[Cha]G[Ser(Me)][Arg(Me)]W-NH2
SMILES: CNC(=N)NCCC[C@H](NC(=O)[C@H](COC)NC(=O)CNC(=O)[C@H](CC1CCCCC1)NC(=O)[C@@H](NC(=O)[C@H](CC(N)=O)NC(=O)[C@@H]1C[C@@H](O)CN1C(=O)[C@@H](Cc1ccc(O)cc1)NC(C)=O)[C@@H](C)O)C(=O)N[C@@H](Cc1c[nH]c2ccccc12)C(N)=O
B7: des(1)-Ac-[D-Tyr2,Hyp3,Thr5,Gly7Ψ((E)CH═CH)Leu8,Trp10]MS10 (peptide)
peptide: Ac-[dY][Hyp]NTFGLRW-NH2
modifications: also: Gly6-Leu7 -CONH- replaced by (E) CH=CH
B8: des(1)-Ac-[D-Tyr2,Glu3,Alb4,Thr5,Gly7Ψ((E)CH═CH)Leu8,Arg(Me)9,Trp10]MS10 (peptide)
peptide: Ac-[dY]E[Dap(CONH2)]TFGL[Arg(Me)]W-NH2
modifications: also: Gly6-Leu7 -CONH- replaced by (E) type alkene
B9: des(1)-Ac-[D-Tyr2,Hyp3,Thr5,Cha6,Arg(Me)9,Trp10]MS10 (peptide)
peptide: Ac-[dY][Hyp]NT[Cha]GL[Arg(Me)]W-NH2
SMILES: CNC(=N)NCCC[C@H](NC(=O)[C@H](CC(C)C)NC(=O)CNC(=O)[C@H](CC1CCCCC1)NC(=O)[C@@H](NC(=O)[C@H](CC(N)=O)NC(=O)[C@@H]1C[C@@H](O)CN1C(=O)[C@@H](Cc1ccc(O)cc1)NC(C)=O)[C@@H](C)O)C(=O)N[C@@H](Cc1c[nH]c2ccccc12)C(N)=O
B10: des(1)-Ac-[D-Tyr2,Hyp3,Thr5,Cha6,Nva8,Arg(Me)9,Trp10]MS10 (peptide)
peptide: Ac-[dY][Hyp]NT[Cha]G[Nva][Arg(Me)]W-NH2
SMILES: CCC[C@H](NC(=O)CNC(=O)[C@H](CC1CCCCC1)NC(=O)[C@@H](NC(=O)[C@H](CC(N)=O)NC(=O)[C@@H]1C[C@@H](O)CN1C(=O)[C@@H](Cc1ccc(O)cc1)NC(C)=O)[C@@H](C)O)C(=O)N[C@@H](CCCNC(=N)NC)C(=O)N[C@@H](Cc1c[nH]c2ccccc12)C(N)=O
B11: des(1)-Ac-[D-Tyr2,Hyp3,Thr5,Abu7,Arg(Me)9,Trp10]MS10 (peptide)
peptide: Ac-[dY][Hyp]NTF[Abu]L[Arg(Me)]W-NH2
B12: des(1)-Ac-[D-Tyr2,Hyp3,Thr5,Gly7Ψ(CH2S)Leu8,Arg(Me)9,Trp10]MS10 (peptide)
peptide: Ac-[dY][Hyp]NTFGL[Arg(Me)]W-NH2
modifications: also: Gly6-Leu7 -CONH- replaced by -CH2S-
B13: des(1)-Ac-[D-Tyr2,Aib3,Thr5,Cha6,Ala(cPr)8,Arg(Me)9,Trp10]MS10 (peptide)
peptide: Ac-[dY][Aib]NT[Cha]G[Ala(cPr)][Arg(Me)]W-NH2
B14: des(1)-Ac-[D-Tyr2,Hyp3,Thr5,Nva8,Arg(Me)9,Trp10]MS10 (peptide)
peptide: Ac-[dY][Hyp]NTFG[Nva][Arg(Me)]W-NH2
B15: des(1)-Ac-[D-Tyr2,Hyp3,Thr5,Ser(Me)8,Arg(Me)9,Trp10]MS10 (peptide)
peptide: Ac-[dY][Hyp]NTFG[Ser(Me)][Arg(Me)]W-NH2
B16: des(1)-Ac-[D-Tyr2,Hyp3,Thr5,Cha6,Gly7Ψ((E)CH═CH)Leu8,Trp10]MS10 (peptide)
peptide: Ac-[dY][Hyp]NT[Cha]GLRW-NH2
modifications: also: Gly6-Leu7 -CONH- replaced by (E) CH=CH
B17: des(1)-Ac-[D-Tyr2,Hyp3,Thr5,Ala(cPr)8,Arg(Me)9,Trp10]MS10 (peptide)
peptide: Ac-[dY][Hyp]NTFG[Ala(cPr)][Arg(Me)]W-NH2
B18: des(1)-Ac-[D-Tyr2,Hyp3,Thr5,Nal(2)6,Arg(Me)9,Trp10]MS10 (peptide)
peptide: Ac-[dY][Hyp]NT[2Nal]GL[Arg(Me)]W-NH2
modifications: not fully specified (residue 7); printed as Ac-D-Tyr-Hyp-Asn-Thr-Nal(2)-Gly-Ala(cPr)-Arg(Me)-Trp-NH2
B19: des(1)-Ac-[D-Tyr2,Asp3,Thr5,Cha6,Ala(cPr)8,Arg(Me)9,Trp10]MS10 (peptide)
peptide: Ac-[dY]DNT[Cha]G[Ala(cPr)][Arg(Me)]W-NH2
B20: des(1)-Ac-[D-Tyr2,Hyp3,Gln4,Thr5,Cha6,Gly7Ψ((E)CH═CH)Leu8,Arg(Me)9,Trp10]MS10 (peptide)
peptide: Ac-[dY][Hyp]QT[Cha]GL[Arg(Me)]W-NH2
modifications: also: Gly6-Leu7 -CONH- replaced by (E)-CH=CH-
B21: des(1)-Ac-[D-Tyr2,Glu3,Thr5,Cha6,Nva8,Arg(Me)9,Trp10]MS10 (peptide)
peptide: Ac-[dY]ENT[Cha]G[Nva][Arg(Me)]W-NH2
B22: des(1)-Ac-[D-Tyr2,Hyp3,Glu4,Thr5,Cha6,Gly7Ψ((E)CH═CH)Leu8,Arg(Me)9,Trp10]MS10 (peptide)
peptide: Ac-[dY][Hyp]ET[Cha]GL[Arg(Me)]W-NH2
modifications: also: Gly6-Leu7 -CONH- replaced by (E)-CH=CH-
B23: des(1)-Ac-[D-Tyr2,Lys3,Thr5,Cha6,Ala(cPr)8,Arg(Me)9,Trp10]MS10 (peptide)
peptide: Ac-[dY]KNT[Cha]G[Ala(cPr)][Arg(Me)]W-NH2
modifications: also: classed as cyclised or stapled
B24: des(1)-Ac-[D-Tyr2,Glu3,Thr5,Cha6,Ser(Me)8,Arg(Me)9,Trp10]MS10 (peptide)
peptide: Ac-[dY]ENT[Cha]G[Ser(Me)][Arg(Me)]W-NH2

biological target: metastin receptor (OT7T175) stably expressed on CHO/dhfr- cells (human or rat, not given); assay: cell-based or functional assay

Going from B1 to B2, the Specific Activity (EC50 of test compound based on EC50 of Metastin (45-54)); agonist activity, intracellular calcium ion level, FLIPR (ratio to Metastin (45-54)) rises from 0.5 to 1.5.

First: B3
Second: B4
The Specific Activity (EC50 of test compound based on EC50 of Metastin (45-54)); agonist activity, intracellular calcium ion level, FLIPR (ratio to Metastin (45-54)) of the first is higher: 0.9 for the first, 0.6 for the second.

Going from B5 to B6, the Specific Activity (EC50 of test compound based on EC50 of Metastin (45-54)); agonist activity, intracellular calcium ion level, FLIPR (ratio to Metastin (45-54)) falls from 1.1 to 0.5.

First: B7
Second: B8
The Specific Activity (EC50 of test compound based on EC50 of Metastin (45-54)); agonist activity, intracellular calcium ion level, FLIPR (ratio to Metastin (45-54)) of the first is lower: 0.4 for the first, 0.5 for the second.

First: B9
Second: B10
The Specific Activity (EC50 of test compound based on EC50 of Metastin (45-54)); agonist activity, intracellular calcium ion level, FLIPR (ratio to Metastin (45-54)) of the first is lower: 0.3 for the first, 0.5 for the second.

Compared with B11, B12 is higher in Specific Activity (EC50 of test compound based on EC50 of Metastin (45-54)); agonist activity, intracellular calcium ion level, FLIPR (ratio to Metastin (45-54)): 1 for the first, 1.2 for the second.

First: B13
Second: B14
The Specific Activity (EC50 of test compound based on EC50 of Metastin (45-54)); agonist activity, intracellular calcium ion level, FLIPR (ratio to Metastin (45-54)) of the first is lower: 0.6 for the first, 0.7 for the second.

Compared with B15, B16 is lower in Specific Activity (EC50 of test compound based on EC50 of Metastin (45-54)); agonist activity, intracellular calcium ion level, FLIPR (ratio to Metastin (45-54)): 0.8 for the first, 0.6 for the second.

Going from B17 to B18, the Specific Activity (EC50 of test compound based on EC50 of Metastin (45-54)); agonist activity, intracellular calcium ion level, FLIPR (ratio to Metastin (45-54)) rises from 0.8 to 1.

First: B19
Second: B20
The Specific Activity (EC50 of test compound based on EC50 of Metastin (45-54)); agonist activity, intracellular calcium ion level, FLIPR (ratio to Metastin (45-54)) of the first is higher: 2.5 for the first, 1.4 for the second.

First: B21
Second: B22
The Specific Activity (EC50 of test compound based on EC50 of Metastin (45-54)); agonist activity, intracellular calcium ion level, FLIPR (ratio to Metastin (45-54)) of the first is lower: 0.4 for the first, 4.6 for the second.

Going from B23 to B24, the Specific Activity (EC50 of test compound based on EC50 of Metastin (45-54)); agonist activity, intracellular calcium ion level, FLIPR (ratio to Metastin (45-54)) falls from 0.7 to 0.5.
